Assay [1] concerns the target wild-type recombinant lipoprotein P4 (rLP4) of non-typable Haemophilus influenzae (non-typable Haemophilus influenzae) (UniProt P26093). Briefly: ELISA on coated wild-type rLP4; week 0 serum. A general note: An ELISA detects its analyte on a solid surface through an enzyme-linked reagent.
The target is the same in assay [2]. Nature of the assay: ELISA on coated wild-type rLP4; preimmune serum pool.

Where “and” joins values, the source holds several entries; their conditions need not be identical. Equal entries are not always repeated.

For pre-immune mouse serum (antibody), in assay [1], the Anti-rP4 ELISA titer was 53 titer and 62 titer; the ELISA titer turned out to be 53 titer. Besides, the ELISA titer in assay [2] is 82 titer and 65 titer.

Values taken from patent US20050249746A1.
